# Test results published in US20120100161A1 (DEUTSCHES KREBSFORSCHUNGSZENTRUM, published 2012).
# T1: Epithelial cell adhesion molecule (EpCAM, CD326) (human, UniProt P16422 24-314)
# T1 construct: whole, on cells; Endogenous EpCAM on carcinoma cell lines; also called EpCAM antigen
# T1 sequence (looked up): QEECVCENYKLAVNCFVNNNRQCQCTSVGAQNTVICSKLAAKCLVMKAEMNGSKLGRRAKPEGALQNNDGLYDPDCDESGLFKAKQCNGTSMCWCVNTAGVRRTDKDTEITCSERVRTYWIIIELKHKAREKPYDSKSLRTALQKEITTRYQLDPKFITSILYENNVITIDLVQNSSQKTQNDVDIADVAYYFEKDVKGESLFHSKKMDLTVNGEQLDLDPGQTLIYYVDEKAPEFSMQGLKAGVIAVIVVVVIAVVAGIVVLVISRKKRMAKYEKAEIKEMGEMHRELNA
# Target: T1, Epithelial cell adhesion molecule …
# Assay: binding to EpCAM-expressing cells; method not stated
binder,measurement,value
"chimeric antibody huHEA125 (antibody, human IgG1, kappa, Mouse HEA125 variable domains on human kappa and human IgG1 constant regions; also called unmodified huHEA125 antibody; non-conjugated huHEA125 antibody) heavy: not shown light: DILLTQSPAILSVSPGERVSFSCRASQSIGISLHWYQQRPSDSPRLLIKYASESISGIPSRFSGSGSGTDFTLSINSVESEDIADYYCQQSNIWPTTFGAGTKLELKRTVAAPSVFIFPPSDEQLKSGTASVVCLLNNFYPREAKVQWKVDNALQSGNSQESVTEQDSKDSTYSLSSTLTLSKADYEKHKVYACEVTHQGLSSPVTKSFNRGEC",Kd,2.2 nM
